# Assay: soluble on expression in E. coli; label from the status in PepcDB or PDB records
row,Sequence,soluble on expression in E. coli
1,MGSDKIHHHHHHDIRPVGSVIPQTAEEYRALLARAYLNVPNDRGLACLRSDEMLVNDNEYDRNSYGDIERWNDVSPFPGTSQFTWSNFYNVLFIANQVIESQKEITEGTPEVVNQLVGEAHLLRAYLHFVLVNLHGQPYTKSGALNSKSIPLKLDTDLEKTLGRNTVEEVYTSILSDIEHARELINKEKWETVFSYRFNVLSVDALQSRVSLYMGAWPKCLESAEAVLAKKSVLVDMNETPLALPNHFESVESITALEQVMGSSVNNAVWVPATFLALYQEGDKRLAAYFAAPDENGNRKSSKGGKREFSCTFRVGELYLNAAEAAANMDKLPHARMRLLELMRKRYTPEAYDKKENAVNVMDKNALISEILNERARELAFEGHRWFDLRRTTRPRMVKVLQGKTYILEQDDPRYTIPIPRDAIAANPGLAN,not soluble
2,MGSDKIHHHHHHMKITKATDITLNDSCYLIYGNPGFGKTSVLKYIPGKTLVIDIDKSSKVLSGCENISIAEVDTHKIWDEWLNVVKELLKGAAEPFDTIVVDNVSELFRACLANLGREGKNHRVPSQADYQRVDFTILDSLRALLQLKKRIVFTAWETSDQWTDENGMIYNRAMPDIRSKILNNFLGLTDVVARLVKKTTEDGEEVRGFILQPSASVYAKNRLDDRKGCKVDELFTTELPS,not soluble
3,IQLQQATQLHFSELGKLLDDLRVEKHINEVRLKLTPSFAFKWLVPKLESFQLENPEIQVQIFAEGALVNSDLKDYDVAIDYGLHPYRDHDAELILDEKLLPVMSPKYLEDHRWLKTPFGDQTSSMSANQWQAATLLHDAMPWEKATRDYEWLYWASAMGFDFKTDVGHFFNRTDMAMSAAEAGVGIAMARMALIEDELTTKRLVSPFAPIPANAGYYLIMNTRSQSTERFREWLLKQIESRR,not soluble
4,SLIRSMTGFGSASKTQDDLSVSVELKSVNYRFKEVNARLPRPLLYFEDKLKQTILQHIQRGRIELFVSVDSDMLVEKRLEIDWPLLDEFVAAARDMKKRYQLSAEPDVMDFFKLDHVVQVHEEQTQNDKLEALIIDAAEEAVKGLCEMREKEGLLLAKDCLMHIDQLEELVRETELLAADVVSRYRERLYARIKEWTEDVLDESRLVTECAIFADRSDITEEITRLKSHFAQFRDILASGGAVGRKLDFLVQELNREANTIGSKANDHQITKLVVEMKSSIEKIKEQVQNIE,soluble
5,MAHHHHHHMGNKLCCINNDLQNSKSSIDIYKYDPREIYGDYDDWTLESWIDKYKNGNSIKVAFPDGNEIQCHFKIFLKERCFELSLDNKVRVIKFNDINCILHRNSCESLLESEQNLLKSPKVIGIRLISTLKAIAFAMDSPGEARMFYEFIEKYCLNG,not soluble
6,MLKEHSKKQHLRREVQEKLKNEAIVAAQTLSTAVVDHLNAKVAQAYGNQKRLDVEAKRFENNSAALAKQTEQWLFITEGLNYALKEIGDVENWSKTIENDMKIITETLRRAYEAKNPPLPPNQANPASH,not soluble
7,MGSDKIHHHHHHMEALLQLKGIDKAFPGVKALSGAALNVYPGRVMALVGENGAGKSTMMKVLTGIYTRDAGTLLWLGKETTFTGPKSSQEAGIGIIHQELNLIPQLTIAENIFLGREFVNRFGKIDWKTMYAEADKLLAKLNLRFKSDKLVGDLSIGDQQMVEIAKVLSFESKVIIMDEPTDALTDTETESLFRVIRELKSQGRGIVYISHRMKEIFEICDDVTVFRDGQFIAEREVASLTEDSLIEMMVGRKLEDQYPHLDKAPGDIRLKVDNLCGPGVNDVSFTLRKGEILGVSGLMGAGRTELMKVLYGALPRTSGYVTLDGHEVVTRSPQDGLANGIVYISEDRKRDGLVLGMSVKENMSLTALRYFSRAGGSLKHADEQQAVSDFIRLFNVKTPSMEQAIGLLSGGNQQKVAIARGLMTRPKVLILDEPTRGVDVGAKKEIYQLINQFKADGLSIILVSSEMPEVLGMSDRIIVMHEGHLSGEFTREQATQEVLMAAAVGKLNRVNQE,not soluble
8,MSLLTVVHDQDSSNEDACGSRSLLDEIVRDGARQMLAAALAAEVAAYIDAHAGEVDENGHRLVVRNGYHREREVLTAAGAVTVIAPRVNDKRIDADTAERRRFSSAILPAWARKSPQMTEVLPLLYLHGLSTSDFGPALEQFLGSGAGLSATTITRLTAQWQDEAKAFGERDLSGTDYVYLWVDGIHLKVRLEQEKLCLLVMIGVRSDGRKELVGLADGYRESTESWADLLRSCRRRGMTAPVLAVGDGALGFWKAMREVFPATREQRCWFHKQANVLSCLPKSAHPGALAAMREIYNAEDIDHAQVAIKAFEVDYGAKYPKAVAKIVDDADVLLEFYRYPAEHWIHLRTTNPIESTFATVRLRTKVTKGPGSRAAGIAMAYKLIDAAQARWRAVNAPHLVALVRAGAVFHKGKLLEREGHHHHHH,not soluble
9,MNGKFDKYEYLQDLMRRRGFAWGSFEIYGGSRGFYDYGPLGATIKRKIERKIREAFIREGFFEIETPDITPEQVFIASGHVEKFVDPVVECKKCGMRFRADHLIEEFLGIDVEGKSAEEMSRIIREHGLKCPECGGELSDVFYFNLMFETYIGPYKDKKAYLRPETAQGIFVNFKRLNAFARNKLPFGVFQIGKAYRNEISPRQGMIRLREFTQAEAEIFFNPNETEHPHFNEVKHEKLKLYPIENQLKELGEVEVTAEEAVKRGYVMNSFFAYYMVMIKKILLDIGIPEDKIRFRQQLPEERAHYSADTWDAEVYSERFGWVECVGLAYRTDYDLSRHMKMSGADLTVMIHYDKPKVVKRIQVSLNMKKVGPKLKADAKKINEIIKSMDQKELEKLVKDLNEKGKVTIEGYELSKEDFIVKEVEEKITGEKIVPHVLEPSFGIDRPFYLLLENSLTVDEDGRIYLKIKKDMAPIEVAVLPLVAKEPLTTIAYEIYRTLQKEGFIVVYDEKDSIGKRYMRYDEIGTPYCVTVDNQTPEDGTVTIRDRDTREQIRVKIEELPRKLKELIFG,soluble
10,MSSGFAVSARSLALMATLAFAAPALAQQYGGEVDPEIRIQQLEDRLRTLTGQNEELQHRNRRLEEQVRQLQSGAGAPGAQQPAPNQATTPPAAPQQPYSQPAQQPAYGQQQPGYGQPQAPMVQPQPAAPQGGGRRGDAFDPSRDPNAPGVPRALGGGQLPMEQSGGMPAGRAAGAPMDLSNGNGGYVQGGYPQGGAPSAAKQPPAATAGGALTTQPPSQTPRDEFDLGIGYMQRRDYALAEETMRNFAQKYPDNPLTADAQYWLGESFFQRQMYRDAAEAFLAVTSKHEKSGKAPDALLRLGQSLSALKEKEAACAALGEIGRKYPQASSSVKKAVDREQKKLKC,not soluble
11,MEVKEMFSLGGGLGRSKVDESKVWDVIIIGAGPAGYTAAIYAARFGLDTIIITKDLGGNMAITDLIENYPGFPEGISGSELSKKMYDQVKKYGVEVIIDEVIRIDPAECAYYEGPCNFVVKTANGKEYKAKTIIIAVGAEPRKLNVPGEKEFTGRGVSYCATCDGPLFVGKEVIVVGGGNTALQEALYLHSIGVKVTLVHRRDKFRADKILQDRFKQAGIPAILNTVVTEIKGTNKVESVVLKNVKTGETVEKKVDGVFIFIGYEPKTDFVKHLGITDEYGYIPVDMYMRTKVPGIFAAGDITNVFKQIAVAVGQGAIAANSAKEFIESWNGKTIE,soluble
12,MPNNISKSAIIKEGVIIGENVTIEDNVYIDYGCIIRDNVHIKKGSFIGARSILGEYLVDFYNDRINKKHPLIIGENALIRTENVIYGDTIIGDNFQTGHKVTIRENTKIGNNVKIGTLSDIQHHVYIGNYVNIHSNVFVGEKSIIKDFVWLFPHVVLTNDPTPPSNELLGVTIELFAVIAARSVVLPGIHINEDALVGAGAVVTKDVPKETVVVGNPAREICSIRKIKNKITGEQVYPWRYTFKRGMPWEETDYDTWIKNISIENLEHHHHHH,soluble
13,MTNIEERINQIIQVLREQVVQDTAVPRNIRRAAEQAIEALQNKEKEPAVRAADAIAILEEISEDPNMPLHTRTIIWEVLGALEQIK,not soluble
14,MAMNLPADNEGKIKLAMSILVTIINDTGVPRNIRRAAANALTHLRDPRLSPAVRAANAISALEEVSQDPNMPFYARTRIWQVITILETVRD,not soluble
